± gives the uncertainty stated by the source.
Test: self-splicing fitness, log relative to wild type (ln ratio); higher = more splicing; Tetrahymena group I intron in knt gene, E. coli kanamycin selection, DiMSum; sequences stand for … in CUCUCU…GGAGGGAAAAGUUAUCAGGCAUGCACCUGGUAGCUAGUCUUUAAACCAAUAGAUUGCAUCGGUUUAAAAGGCAAGACCGUCAAAUUGCGGGAAAGGGGUCAACAGCCGUUCAGUACCAAGUCUCAGGGGAAACUUUGAGAUGGCCUUGCAAAGGGUAUGGUAAUAAGCUGACGGACAUGGUCCUAACCACGCAGCCAAGUCCUAAGUCAACAGAUCUUCUGUUGAUAUGGAUGCAGUUCACAGACUAAAUGUCGGUCGGGGAAGAUGUAUUCUUCUCAUAAGAUAUAGUCGGACCUCUCCUUAAUGGGAGCUAGCGGAUGAAGUGAUGCAACACUGGAGCCGCUGGGAACUAAUUUGUAUGCGAAAGUAUAUUGAUUAGUUUUGGAGUACUCGUGGUCG
Method in brief: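 DiMSum derived fitness as the error-weighted combination of fold changes across replicates, kanamycin versus no kanamycin, normalised to wild type. E. coli BL21(DE3) held the library, which randomised all eight P1ex-region intron nucleotides within the knt kanamycin-resistance gene on pET-22b(+). Six replicate transformations grew overnight at 37°C or 30°C on LB agar with or without 25 μg/mL kanamycin, also containing 100 μg/mL carbenicillin, 50 μM IPTG and 0.2% rhamnose, and pooled colonies were amplicon-sequenced on an Illumina HiSeq 2500.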

| Sequence | self-splicing fitness (ln) (30 °C) | self-splicing fitness (ln) (37 °C) |
| --- | --- | --- |
| UCGUAGCAAUAUUACGGUGC | -3.62 ± 0.33 | -3.15 ± 0.47 |
| UCGUAGCAAUAUUACGGUGG | -2.84 ± 0.098 | -1.31 ± 0.086 |
| UCGUAGCAAUAUUACGUCUC | -2.93 ± 0.19 | -2.29 ± 0.22 |
| UCGUAGCAAUAUUACGUUAU | -4.46 ± 0.42 | -2.64 ± 0.34 |
| UCGUAGCAAUAUUACGUUGU | -4.46 ± 0.46 | -2.43 ± 0.23 |
| UCUAAGCAAUAUUACGAAAA |  | -1.34 ± 0.29 |
| UCUAAGCAAUAUUACGACCG | -0.676 ± 0.14 | -0.00302 ± 0.22 |
| UCUAAGCAAUAUUACGAGCA | -1.38 ± 0.15 | -0.145 ± 0.15 |
| UCUAAGCAAUAUUACGAGGC | -2.85 ± 0.31 | -2.58 ± 0.38 |
| UCUAAGCAAUAUUACGAUAC | -2.38 ± 0.25 | -2.95 ± 0.47 |
| UCUAAGCAAUAUUACGAUUA | -2.61 ± 0.33 | -1.94 ± 0.34 |
| UCUAAGCAAUAUUACGCAAG | -2.85 ± 0.4 | -1.86 ± 0.34 |
| UCUAAGCAAUAUUACGCACA | -2.26 ± 0.39 | -0.556 ± 0.47 |
| UCUAAGCAAUAUUACGCAGU | -1.86 ± 0.16 | -1.24 ± 0.15 |
| UCUAAGCAAUAUUACGCCCU | -2.09 ± 0.24 | -1.78 ± 0.25 |
| UCUAAGCAAUAUUACGCCGA | -1.12 ± 0.19 | -0.156 ± 0.2 |
| UCUAAGCAAUAUUACGCGGC |  | -1.59 ± 0.36 |
| UCUAAGCAAUAUUACGCUGU | -2.47 ± 0.18 | -2.59 ± 0.21 |
| UCUAAGCAAUAUUACGCUUA | -2.29 ± 0.21 | -1.75 ± 0.29 |
| UCUAAGCAAUAUUACGGACG | -3.16 ± 0.22 | -1.95 ± 0.28 |

| Sequence | self-splicing fitness (ln) (30 °C) | self-splicing fitness (ln) (37 °C) |
| --- | --- | --- |
| UCUAAGCAAUAUUACGGAUA | -2.97 ± 0.22 | -1.77 ± 0.19 |
| UCUAAGCAAUAUUACGGGCA | -1.42 ± 0.12 | -0.441 ± 0.12 |
| UCUAAGCAAUAUUACGGGUG | -1.54 ± 0.076 | -0.964 ± 0.099 |
| UCUAAGCAAUAUUACGUCGG | 0.0423 ± 0.067 | 0.627 ± 0.078 |
| UCUAAGCAAUAUUACGUGGC | -3.09 ± 0.19 | -3.11 ± 0.34 |
| UCUAAGCAAUAUUACGUUAG | -2.19 ± 0.1 | -1.04 ± 0.1 |
| UCUCAGCAAUAUUACGACAA | -1.98 ± 0.25 | -1.31 ± 0.27 |
| UCUCAGCAAUAUUACGAGAG | -2.76 ± 0.11 | -1.46 ± 0.11 |
| UCUCAGCAAUAUUACGAGUG | -0.746 ± 0.068 | 0.292 ± 0.086 |
| UCUCAGCAAUAUUACGAUAA | -2.15 ± 0.21 | -1.33 ± 0.21 |
| UCUCAGCAAUAUUACGAUAU | -2.12 ± 0.14 | -1.75 ± 0.18 |
| UCUCAGCAAUAUUACGAUCC |  | -1.66 ± 0.37 |
| UCUCAGCAAUAUUACGAUGG | -0.935 ± 0.11 | -1 ± 0.14 |
| UCUCAGCAAUAUUACGCACG | -2.2 ± 0.2 | -2.06 ± 0.28 |
| UCUCAGCAAUAUUACGCACU | -0.801 ± 0.13 | -0.465 ± 0.14 |
| UCUCAGCAAUAUUACGCCAG | -1.94 ± 0.25 | -1.2 ± 0.34 |
| UCUCAGCAAUAUUACGCCCA | -0.778 ± 0.12 | -1.88 ± 0.18 |
| UCUCAGCAAUAUUACGCGCU |  | -3.12 ± 0.43 |
| UCUCAGCAAUAUUACGCGGG | -1.7 ± 0.14 | -1.4 ± 0.15 |

— the supplement of paper PMC7877785
